Assay results published in patent US7049398B1, “Melanocortin metallopeptide constructs, combinatorial libraries and applications” (Palatin Technologies, Inc., priority 1999, dated 2006).
Where no end group is shown, it is not given here. [ ]: non-standard residue; d: D form. The star is where a group is joined. Phe(2,4-Cl2) = N[C@@H](Cc1ccc(Cl)cc1Cl)C(=O)O; Hydrocinnamoyl = O=C(CCc1ccccc1)*; Tle = CC(C)(C)[C@H](N)C(=O)O; Heptanoyl = CCCCCCC(=O)*; Nle = CCCC[C@H](N)C(=O)O; Ac3c = NC1(C(=O)O)CC1; Tfa = O=C(C(F)(F)F)*; βAla = NCCC(=O)O

Legend:
[1] = biological target: T1, MC1-R (B-16 mouse melanoma cells) (Mus musculus, UniProt Q01727); test: Competitive inhibition binding assay, 125I-NDP-alpha-MSH, B-16 mouse melanoma cell membranes; details: 0.4 nM 125I-NDP-alpha-MSH
T1 construct: B-16 mouse melanoma cells (containing MC1-R); endogenous in cells; host or cells: B-16 mouse melanoma cells
T1 sequence (Q01727 whole entry): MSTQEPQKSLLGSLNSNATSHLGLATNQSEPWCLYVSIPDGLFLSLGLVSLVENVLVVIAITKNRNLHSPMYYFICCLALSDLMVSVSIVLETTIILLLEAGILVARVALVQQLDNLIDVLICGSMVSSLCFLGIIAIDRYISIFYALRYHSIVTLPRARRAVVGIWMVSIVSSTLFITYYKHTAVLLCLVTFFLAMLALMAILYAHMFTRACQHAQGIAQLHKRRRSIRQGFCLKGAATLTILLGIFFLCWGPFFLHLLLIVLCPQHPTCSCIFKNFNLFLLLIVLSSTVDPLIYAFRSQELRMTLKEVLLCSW
Protocol: (§1) Representative Peptides of this Invention. Representative peptides of this invention were made using library and synthesis methods described herein, and selected peptides were tested using a binding assay. […] The peptides were synthesized using conventional peptide synthesis methods, and were complexed with rhenium using the methods described herein.
(§2) The competitive inhibition binding assay was conducted using membranes prepared from hMC4-R and B-16 mouse melanoma cells (containing MC1-R) using 0.4 nM ^125I-NDP-alpha-MSH (New England Nuclear, Boston, Mass., USA) in 50 mM HEPES buffer containing 1 mM MgCl2, 2 mM CaCl2, and 5 mM KCl, at pH 7.2. The assay tube also contained a chosen concentration of the test peptide of this invention, complexed to a rhenium metal ion as indicated, for determining its efficacy in inhibiting the binding of ^125I-NDP-alpha-MSH to its receptor. Non-specific binding was measured by complete inhibition of binding of ^125I-NDP-alpha-MSH in the assay with the presence of 1 μM alpha-MSH. Incubation was for 90 minutes at room temperature, after which the assay mixture was filtered and the membranes washed three times with ice cold buffer. The filter was dried and counted in a gamma counter for remaining radioactivity bound to the membranes. 100% specific binding was defined as the difference in radioactivity (cpm) bound to cell membranes in the absence and presence of 1 μM alpha-MSH. The cpm obtained in presence of test compounds were normalized with respect to 100% specific binding to determine the percent inhibition of ^125I-NDP-alpha MSH binding. […]

[2] = system: Human MC4-R or B-16 cells; test: cAMP stimulation assay in absence and presence of alpha-MSH; format: cell-based, human; mouse; details: 1 h 37° C., 0.2 mM IBMX
Protocol: For selected peptides of this invention, a cAMP assay was also performed. Human MC4-R or B-16 cells were grown to confluence in 96 well plates (plating approximately 250,000 cells per well). Identical sets of cells in triplicate were treated with 0.2 mM isobutylmethylxanthine (IBMX) and the chosen concentration of the rhenium metal ion-complexed peptide and the rhenium metal ion-complexed peptide in the presence of 20 nM alpha-MSH. Cells similarly treated but with only 20 nM alpha-MSH served as positive control. A buffer blank, as a negative control, was also included. Incubation was for one hour at 37° C. after which the medium was aspirated and the cells extarted with 150 microliters of HCl. Total cAMP accumulated in 100 microliters of this solution was quantitated using a commercially available low pH cAMP assay kit (R&D Systems) by the procedure specified by the kit supplier. […] The rhenium metal ion-complexed peptide showing cAMP accumulation in the same range as or higher than the positive control (buffer blank in the presence of alpha-MSH) are considered to be agonist ligands. The rhenium metal ion-complexed peptide showing accumulation in the same range as the negative control (buffer blank in the absence of alpha-MSH) are ineffective at the test concentration if the result is similar to the positive control where alpha-MSH is also present in the assay. The rhenium metal ion-complexed peptide showing accumulation in the same range as the negative control are considered to be antagonists if there is inhibition in cAMP when alpha-MSH is present in the assay. Values above the positive control are due to potent agonism, experimental variance or synergistic agonistic effects of rhenium metal ion-complexed peptide and alpha-MSH. […]

hMC4-R = biological target: T2, hMC4-R (Homo sapiens, UniProt P32245); test: Competitive inhibition binding assay, 125I-NDP-alpha-MSH, hMC4-R membranes; details: 0.4 nM 125I-NDP-alpha-MSH
T2 construct: expressed in transfected cells; host or cells: 293 cells
T2 sequence (P32245 whole entry): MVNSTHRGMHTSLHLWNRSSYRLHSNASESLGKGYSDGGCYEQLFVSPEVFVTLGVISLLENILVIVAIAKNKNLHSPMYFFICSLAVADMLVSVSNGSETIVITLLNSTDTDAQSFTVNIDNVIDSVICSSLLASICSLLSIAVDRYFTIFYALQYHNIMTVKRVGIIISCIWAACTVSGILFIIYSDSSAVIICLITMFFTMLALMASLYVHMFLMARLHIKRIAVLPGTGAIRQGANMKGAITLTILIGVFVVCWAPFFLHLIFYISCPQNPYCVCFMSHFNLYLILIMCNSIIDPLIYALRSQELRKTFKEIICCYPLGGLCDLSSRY
Protocol: as §1, §2

[3] = Conc. cut off 10 μM, B-16 mouse melanoma cell membranes
[4] = 10 μM test compound + 20 nM alpha-MSH
[5] = Conc. cut off 10 μM, hMC4-R membranes
[6] = Conc. cut off 1 μM test peptide
[7] = 1 μM test compound + 20 nM alpha-MSH
[8] = Conc. cut off 1 μM, B-16 mouse melanoma cell membranes
[9] = Conc. cut off 1 μM, hMC4-R membranes

Row | Substance | % Inhibition MC1-R (B-16) [1, 6] | % Inhibition MC4-R (hMC4-R; [6]) | % Inhibition MC1-R (B-16) [1, 8] | % Inhibition MC4-R (hMC4-R; [9]) | other results
1 | PL-1346: metallopeptide of Table 1 (Hydrocinnamoyl-HRCW-NH2; also: ReO[V] metal complex) |  |  |  |  | % Inhibition MC1-R (B-16) [1, 3]: 86%; cAMP Accumulation, Presence of α-MSH [2, 4]: 76 pmol/mL; cAMP Accumulation, Absence of α-MSH ([2]; 10 μM test compound): 3 pmol/mL; % Inhibition MC4-R (hMC4-R; [5]): 77%
2 | PL-838: metallopeptide of Table 1 (Ac-HFRCW-NH2; also: ReO[V] metal complex) |  |  |  |  | % Inhibition MC1-R (B-16) [1, 3]: 35%; cAMP Accumulation, Presence of α-MSH [2, 4]: 53 pmol/mL; cAMP Accumulation, Absence of α-MSH ([2]; 10 μM test compound): 2 pmol/mL; % Inhibition MC4-R (hMC4-R; [5]): 0%
3 | PL-1842: metallopeptide of Table 1 (Ac-[Nle]AHRFWC-NH2; also: ReO[V] complex) | 27% | 2% |  |  | cAMP Accumulation, Presence of α-MSH [2, 7]: 76 pmol/mL; cAMP Accumulation, Absence of α-MSH ([2]; 1 μM test compound): 25 pmol/mL
4 | PL-1751: metallopeptide of Table 1 (Ac-HXRWC-NH2; not fully specified (residue 2); printed as Ac-L-His-L-(N-2′naphthalene)Phe-L-Arg-L-Trp-L-Cys-NH2; also: ReO[V] complex) | 78% | 70% |  |  | cAMP Accumulation, Presence of α-MSH [2, 7]: 96 pmol/mL; cAMP Accumulation, Absence of α-MSH ([2]; 1 μM test compound): 71 pmol/mL
5 | PL-1265: metallopeptide of Table 1 (Ac-EHGRWC-NH2; also: ReO[V] metal complex) |  |  | 34% | 67% | cAMP Accumulation, Presence of α-MSH [2, 7]: 127 pmol/mL; cAMP Accumulation, Absence of α-MSH ([2]; 1 μM test compound): 3 pmol/mL
6 | PL-1073 (Ac-A[Tle]CW-NH2; also: ReO complex) |  |  | −6% | 13% | 
7 | PL-1114 ([βAla]HFCW-NH2; also: ReO[V] metal complex) |  |  |  |  | % Inhibition MC1-R (B-16) [1, 3]: 2%; % Inhibition MC4-R (hMC4-R; [5]): 10%
8 | PL-1348 (Ac-RHFCW-NH2; also: ReO[V] metal complex) |  |  |  |  | % Inhibition MC1-R (B-16) [1, 3]: 57%; % Inhibition MC4-R (hMC4-R; [5]): 51%
9 | PL-1093 ([βAla]G[Phe(2,4-Cl2)]CW-NH2; also: ReO complex) |  |  | 2% | 2% | 
10 | PL-1092 ([βAla]GK(Tfa)CW-NH2; also: ReO complex) |  |  | 4% | 4% | 
11 | PL-1635 (Ac-[Nle]RA[Ac3c]CW-NH2; also: ReO[V] complex) | 14% | 43% |  |  | 
12 | PL-1513 (Ac-RFFNFC-NH2; also: ReO[V] metal complex) | 23% | 18% |  |  | 
13 | PL-1300 (Heptanoyl-ARCW-NH2; also: ReO[V] metal complex) |  |  | 62% | 22% | 
14 | PL-1450 (Ac-[Nle]AHFRCW-NH2; also: ReO[V] metal complex) | 73% | 66% |  |  | 
15 | PL-1514 (Ac-RFFNFC-NH2; also: ReO[V] metal complex) | 28% | 30% |  |  | 
16 | PL-1416 (Ac-[Nle]AHFRCW-NH2; also: ReO[V] metal complex) |  |  | 85% | 35% | 
